How the values were obtained:
[1] = In vivo toxicity evaluation after intravenous treatment; conditions: for H&E staining of kidney sections, pathological features / H&E staining of spleen sections, pathological features / serum alanine aminotransferase (ALT) level / serum aspartate aminotransferase (AST) level / serum blood nitrogen urea (BUN) level: 10 mg/kg AMP equivalent dose
Source text: FIG. 5. In vivo toxicity evaluation of a model ABD-AMP conjugate. (A) Treatment groups and their body conditions. (B) Serum chemistry analysis of ALT, AST, and BUN. (C) H&E staining of spleen and kidneys sections. Arrows indicate protein casts or apoptotic bodies.
Given a favorable biodistribution profile of ABD-AMP conjugate, we next evaluated if our conjugate could improve safety profile of AMP. We performed toxicity evaluation in mice following intravenous treatments with free AMP (D)Pex or conjugate (ABD)2-(EEG)6-S12-(D)Pex at 5 and 10 mg/kg AMP equivalent doses (FIG. 5A). […] In the spleens of the (D)Pex-treated mice, patches of apoptotic lymphocytes were observed. These pathological features were not observed in mice treated with the conjugate at the equivalent AMP dose. Altogether, our conjugate formulation effectively improves safety profile of AMP following systemic administration.

[2] = test system: Pseudomonas aeruginosa PAO1; assay: Antibacterial assay (MIC) on PAO1, conjugate with and without thrombin pre-cleavage; format: cell-based; conditions: for fold activity masking in term of antibacterial activity on PAO1: peptide formulated into ABD-AMP conjugate, with and without thrombin pre-cleavage (FIGS. 6A and B)
Source text: (§1) FIG. 3. In vitro evaluation of a model ABD-AMP conjugate. (A) Schematic of (ABD)2-(EEG)6-S12-(D)Pex. (B) Antibacterial assay on PAO1 treated with conjugate with and without thrombin pre-cleavage. OD600 indicates extent of bacteria viability. (C) MTS-based mammalian toxicity evaluation of L929 fibroblasts. (D) Hemolysis assay on mouse red blood cells.
(§2) FIG. 6. Evaluation of activity masking for alternative AMPs and alternative application. Antibacterial assay on PAO1 treated with (A) (ABD)2-(EEG)6-512-POL7080 and (B) (ABD)2-(EEG)6-S12-Colistin with and without thrombin pre-cleavage. OD600 indicates extent of bacteria viability. (C) Evaluation of anticancer activity masking of (ABD)2-(EEG)6-S12-(D)Pex on HepG2 cell line by an MTS assay.
(§3) To verify activity masking of our therapeutics, we evaluated antibacterial activity of our model ABD-AMP conjugate candidate ((ABD)2-(EEG)6-S12-(D)Pex) (FIG. 3A) with and without thrombin pre-activation on Pseudomonas aeruginosa PAO1. […] Overall, formulating AMP as an ABD-AMP conjugate provides an activity mask that can be activated with cleavage of the cleavable linker.
To ensure broad application across different therapeutic peptides, we formulated additional AMPS (POL7080 and colistin) into ABD-AMP conjugates and evaluated the extent of activity masking. […] Given that several AMPS are widely explored for anticancer property capitalizing on higher negative charge of cancer cell membrane, we determined whether ABD-AMP conjugate formulation could be utilized in the cancer context. Cell toxicity assay of (ABD)2-(EEG)6-S12-(D)Pex was performed on human hepatocellular carcinoma cell line HepG2 (FIG. 6C).

L929 fibroblasts = conditions: intact conjugate; MTS
Source text: as §1, §3

mouse red blood cells = conditions: intact conjugate
Source text: as §1, §3

[3] = test system: human hepatocellular carcinoma cell line HepG2; assay: Cell toxicity (MTS) assay on HepG2, anticancer activity masking; format: cell-based
Source text: as §2
To ensure broad application across different therapeutic peptides, we formulated additional AMPS (POL7080 and colistin) into ABD-AMP conjugates and evaluated the extent of activity masking. A 64-fold activity masking was similarly observed for both peptides in term of antibacterial activity on PAO1 (FIGS. 6A and B) confirming robust activity masking of AMPS across diverse secondary structures. Given that several AMPS are widely explored for anticancer property capitalizing on higher negative charge of cancer cell membrane, we determined whether ABD-AMP conjugate formulation could be utilized in the cancer context. Cell toxicity assay of (ABD)2-(EEG)6-S12-(D)Pex was performed on human hepatocellular carcinoma cell line HepG2 (FIG. 6C). […] Altogether, ABD-AMP conjugate platform represents a generalizable platform for formulating diverse activatable therapeutic peptides for different disease applications with aberrant protease microenvironment such as microbial infection and cancer.

[4] = Source text: FIG. 4. In vivo pharmacokinetic and biodistribution evaluations of a model ABD-AMP conjugate. […] (B) Pharmacokinetics of ABD-AMP-Cy7 conjugate and a free AMP-Cy7 control. (C) Experimental timeline for time-lapse biodistribution and conjugate activation evaluation in a PAO1 lung infection model. Quantification of intact and active AMP contents in (D) lungs, (E) kidneys, (F) liver, and (G) spleen at different time points. […] (I) Estimated fold change at equivalent lung exposure of active AMP content.
To study time-lapse biodistribution and conjugate activation in an infection context, we first infected mice with PAO1 via intratracheal instillation (IT) (FIG. 4C). The conjugate or free AMP control were intravenously (IV) administered 6 h post infection. The mice were euthanized at different time points, and organs were harvested and homogenized for quantification of conjugate and released AMP contents via SDS-PAGE analysis. […] Alternatively, when estimating at the equivalent lung exposure of active AMP, our conjugate reduced exposure of active AMP to kidneys, liver, and spleen by 3.1, 9.3, and 4.2 fold, respectively (FIG. 4I).

Molecule: CC[C@@H](C)[C@@H](NC(=O)CN)C(=O)NCC(=O)N[C@H](CCCCN)C(=O)N[C@H](Cc1ccccc1)C(=O)N[C@H](CC(C)C)C(=O)N[C@H](CCCCN)C(=O)N[C@H](CCCCN)C(=O)N[C@H](C)C(=O)N[C@H](CCCCN)C(=O)N[C@H](CCCCN)C(=O)N[C@H](Cc1ccccc1)C(=O)NCC(=O)N[C@H](CCCCN)C(=O)N[C@H](C)C(=O)N[C@H](Cc1ccccc1)C(=O)N[C@@H](C(=O)N[C@H](CCCCN)C(=O)N[C@@H](C(=O)N[C@H](CC(C)C)C(=O)N[C@H](CCCCN)C(=O)N[C@H](CCCCN)C(N)=O)[C@H](C)CC)C(C)C [(D)Pex, GiGkflkkakkfGkafvkilkk-CONH2 (SEQ ID NO: 74)]
- mice that did not survive to the end point ([1]; 10 mg/kg, 24 h end point): 3 out of 5
- H&E staining of kidney sections, pathological features ([1]; mice): significant damage
- H&E staining of spleen sections, pathological features ([1]; mice): significant damage
- serum alanine aminotransferase (ALT) level ([1]; mice): exceeding the reference range
- serum aspartate aminotransferase (AST) level ([1]; mice): exceeding the reference range
- serum blood nitrogen urea (BUN) level ([1]; mice): exceeding the reference range
- body condition (signs of distress) ([1]; mice, 10 mg/kg, observed 24 h): evident signs of distress

Molecule: 6-methyloctanoic acid-Dab-Thr-Dab-(Dab-Dab-(D-Leu)-Leu-Dab-Dab-Thr) (SEQ ID NO: 84) [colistin]
- fold activity masking in term of antibacterial activity on PAO1 [2]: 64 fold

Molecule: Cyclo-(T-W-I-(Dab)-(Orn)-(Dab)-(Dab)-W-(Dab)-(Dab)-A-S-p-P) (SEQ ID NO: 88) [POL7080]
- fold activity masking in term of antibacterial activity on PAO1 [2]: 64 fold

B1: (ABD)2-(EEG)6-S12-(D)Pex: model ABD-AMP conjugate, Table 8, SEQ ID NO: 157 (conjugate)
chain: GLKEAKEKAIEELKKAGITSDYYFDLINKAKTVEGVNALKDEILKAGGGGSGGGGSGGGGSLKEAKEKAIEELKKAGITSDYYFDLINKAKTVEGVNALKDEILKAHHHHHHSPSTPPTPSPSTPPEEGEEGEEGEEGEEGEEGPLGLRSWGCGIGKFLKKAKKFGKAFVKILKK
modifications: MISC_FEATURE - Chemically linked by a (DBCO-Maleimide)-Azidoacetyl; SITE 155 MISC_FEATURE - D amino acid; MISC_FEATURE - D amino acid
- fold higher minimum inhibitory concentration (MIC) of intact conjugate ([2]; intact conjugate versus thrombin pre-activated, PAO1, MIC = lowest treatment concentration that fully inhibits bacteria growth): 64 fold
- masking of mammalian toxicity on L929 fibroblasts (L929 fibroblasts): effectively mask
- masking of hemolysis (mouse red blood cells): effectively mask
- H&E staining of kidney sections, pathological features ([1]; mice): not observed
- H&E staining of spleen sections, pathological features ([1]; mice): not observed
- serum alanine aminotransferase (ALT) level ([1]; mice): within the normal reference range
- serum aspartate aminotransferase (AST) level ([1]; mice): within the normal reference range
- serum blood nitrogen urea (BUN) level ([1]; mice): within the normal reference range
- tolerability / body condition ([1]; mice, 5 and 10 mg/kg AMP equivalent doses, observed 24 h): well tolerated up to the highest dose tested with no signs of distress
- cell toxicity on HepG2, after activation by target protease (Thrombin) ([3]; thrombin pre-cleaved): restored
- cell toxicity on HepG2, intact conjugate ([3]; without protease activation): natively inactive

B2: (ABD)2-(EEG)6-S12-(D)Pex-Cy7: Cy7-labelled model ABD-AMP conjugate, Table 8, SEQ ID NO: 158 (conjugate)
chain: GLKEAKEKAIEELKKAGITSDYYFDLINKAKTVEGVNALKDEILKAGGGGSGGGGSGGGGSLKEAKEKAIEELKKAGITSDYYFDLINKAKTVEGVNALKDEILKAHHHHHHSPSTPPTPSPSTPPEEGEEGEEGEEGEEGEEGPLGLRSWGCGIGKFLKKAKKFGKAFVKILKKK
modifications: Cy7 label; MISC_FEATURE - Chemically linked -(DBCO-Maleimide)-Azidoacetyl; SITE 155 MISC_FEATURE - D amino acid; MISC_FEATURE - D amino acid; SITE 176 MISC_FEATURE - linked to (Cy7)
- fold increase in area-under-the-concentration-time curve (AUC), circulation ([4]; compared to the free (D)Pex-Cy7 control): 91 fold
- AUC fold higher active AMP delivered to the lungs ([4]; mouse, in vivo): 2.6 fold
- AUC fold reduction of active AMP exposure, kidneys ([4]; mouse, in vivo): 1.2 fold
- AUC fold reduction of active AMP exposure, liver ([4]; mouse, in vivo): 3.6 fold
- AUC fold reduction of active AMP exposure, spleen ([4]; mouse, in vivo): 1.6 fold
- fold reduction of active AMP exposure, kidneys, at equivalent lung exposure ([4]; mouse, in vivo): 3.1 fold
- fold reduction of active AMP exposure, liver, at equivalent lung exposure ([4]; mouse, in vivo): 9.3 fold
- fold reduction of active AMP exposure, spleen, at equivalent lung exposure ([4]; mouse, in vivo): 4.2 fold

Reference: US12448418B2, “Activatable therapeutic peptides and uses thereof” (priority 2022, dated 2025)
